Source: IntAct's records for PubMed 25770211

B1: 5-hydroxytryptamine receptor 2C (Homo sapiens), P28335 (parent)
chain: MVNLRNAVHSFLVHLIGLLVWQSDISVSPVAAIVTDIFNTSDGGRFKFPDGVQNWPALSIVIIIIMTIGGNILVIMAVSMEKKLHNATNYFLMSLAIADMLVGLLVMPLSLLAILYDYVWPLPRYLCPVWISLDVLFSTASIMHLCAISLDRYVAIRNPIEHSRFNSRTKAIMKIAIVWAISIGVSVPIPVIGLRDEEKVFVNNTTCVLNDPNFVLIGSFVAFFIPLTIMVITYCLTIYVLRRQALMLLHGHTEEPPGLSLDFLKCCKRNTAEEENSANPNQDQNARRRKKKERRPRGTMQAINNERKASKVLGIVFFVFLIMWCPFFITNILSVLCEKSCNQKLMEKLLNVFVWIGYVCSGINPLVYTLFNKIYRRAFSNYLRCNYKVEKKPPVRQIPRVAATALSGRELNVNIYRHTNEPVIEKASDNEPGIEMQVENLELPVNPSSVVSERISSV
partner: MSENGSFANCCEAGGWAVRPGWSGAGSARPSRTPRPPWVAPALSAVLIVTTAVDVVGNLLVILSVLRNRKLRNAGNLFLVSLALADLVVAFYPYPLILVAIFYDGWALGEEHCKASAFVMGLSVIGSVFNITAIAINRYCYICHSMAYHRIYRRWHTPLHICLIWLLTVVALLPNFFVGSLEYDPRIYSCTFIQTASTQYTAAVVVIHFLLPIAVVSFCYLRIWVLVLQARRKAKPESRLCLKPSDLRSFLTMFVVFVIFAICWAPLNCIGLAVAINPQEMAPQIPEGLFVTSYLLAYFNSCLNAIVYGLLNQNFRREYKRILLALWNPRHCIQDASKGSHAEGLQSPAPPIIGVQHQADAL

Variants of: B1
Details: with mtr1b_human MTNR1B

Variant	effect of a mutation on the interaction
S138N	with no effect
